In patent US20200397860A1, “SLIT AND BONE GROWTH MODULATION” (Cornell University, priority 2018, published 2020):
Entries after “also recorded” stand apart in the source; their conditions may differ.

Legend:
[1] = test system: bone marrow endothelial progenitor outgrowth cells (EPOCs); experiment: Endothelial cell wound healing (migration) assay; assay type: cell-based, mouse
Protocol: Mouse bone marrow derived late-stage endothelial progenitor outgrowth cells (EPOCs) were obtained from BioChain (7030031) and cultured in growth medium (BioChain Z7030035) as described previously (Xie et al. 2014). Endothelial cell migration assay was set up in Trans well-24 well plates with 8-um pore filters. Briefly, 1×10^5 cells/well after 1-hour serum starvation were seeded in the upper chamber, then incubated with conditioned medium from osteoblasts and control in the lower chambers for a further 3 h. The cells in the upper surface of each filter were removed with cotton swabs. The cells that migrated into the lower surface were fixed with 4% PFA for 30 min and then stained with crystal violet. The cell numbers were quantified by counting a centered microscope field per each filter (5 wells for each condition). […] The width of the wound area was quantitatively evaluated using ImageJ (see website at rsb.info.uih.gov/ij/download.html). […] At 0, 24, 48 hours after seeding, cells were incubated with 10-fold diluted Alamar Blue solution (Thermo Fisher) and the supernatant was evaluated with a spectrophotometer (Thermo) (5 wells for each condition). […] Alter 5 hours incubation at 37° C., the number of tube branches each well was observed and quantified by counting four random fields per well with microscopy (5 wells for each condition).

[2] = test system: open femoral midshaft fracture; experiment: Open femoral midshaft fracture model, systemic IV SLIT3; assay type: in vivo, mouse
Protocol: Micro-CT (μCT) analysis was conducted on a Scanco Medical μCT 35 system at the Citigroup Biomedical Imaging Core using the previously described parameters. (Shim et al. 2013). μCT analysis was performed by an investigator blinded to the genotypes of the animals under analysis.
For histological analysis, hindlimbs were dissected from the mice or human callus, fixed in 10% neutral buffered formalin for 24-48 hours, and decalcified by daily changes of 15% tetrasodium EDTA for 2 weeks. Tissues were dehydrated by passage through an ethanol series, cleared twice in xylene, embedded in paraffin, and sectioned at 7 μm thickness. Decalcified sections were stained with hematoxylin and eosin (H&E). We incubated the slides with primary antibody to mouse EMCN (sc-65495, Santa Cruz, 1:200) and human Slit3 (ab198726, Abcam 1:50) at 37° C. for 2 h and subsequently used a horseradish peroxidase-streptavidin detection system (Dako) to detect the immunoreactivity. The number and volume of positively stained vessels was measured in four random visual fields of callus in 3 sequential sections per mouse in each group.
All surgical procedures were performed under isoflurane (1-4%) anesthesia via nosecone. Surgical sites were sterilized using a betadine/iodide/isopropanol prep after hair removal by a clipper with a #40 blade and depilatory cream (Nair). After surgery, the visceral lining or muscle was sutured with absorbable Ethicon vicryl sutures (VWR, Cat #95057-014) prior to closing the skin with wound clips that were then removed 2 weeks post-operatively. Animals received intraperitoneal Buprenex (0.5 mg/kg) and oral Meloxicam (2.0 mg/kg) as analgesia prior to surgery and once every 24 hours post-surgery for 3 days. All surgical procedures are approved by the IACUC of Weill Cornell Medical College (Protocol #2012-0005).
Bone fracture was done following previously described protocols with modifications (Bradaschia-Correa et al. 2017). In brief, after anesthesia and surgical site sterilization, an incision above the right anterolateral femur was made. The femur and patella were then exposed, and a 27-gauge syringe needle was inserted parallel with the long axis of the femur through the patellar groove into the marrow cavity. The needle was then removed, and a single cut was made in the middle of the femoral diaphysis using a dremel saw with a diamond thin cutting wheel (VWR, Cat #100230-724). A blunt 25-gauge needle was then inserted into the marrow space through the hole made in the patella to stabilize the fracture. The needle was then trimmed to avoid it from projecting into the patella-femoral joint space. Muscle was then placed over the osteotomy site and stitched with absorbable sutures prior to closing the skin with wound clips.
Alternatively, the gelatin sponge was manually soaked with SLITS (300 ug/ml in PBS) or vehicle for 1 hour on ice and immediately placed to the surgical fracture area. All animals were euthanized by CO2 at time points indicated.
All bones were tested to failure using four-point bending on a precision electromagnetic-based load frame (EnduraTEC ELF 3200, Bose Corporation, Minnetonka, MC). Femurs were placed with the posterior surface on the lower supports, spaced 9.9 mm apart. The upper supports were spaced 3.3 ram. Load was applied at a rate of 0.1 mm/s until failure occurred. The failure load (N) and bending stiffness […] within the elastic range were calculated from the force-displacement curves and the four-point dimensions.

[3] = test system: bone marrow-derived endothelial cells; experiment: Flow cytometry of CD31hiEMCNhi endothelial cells in EPOC cultures; assay type: cell-based, mouse; settings: cultures of EPOCs
Protocol: Femur and tibia were dissected from mutant mice and control groups after removing surrounding connective tissues. The metaphysis region and diaphysis regions of bone was crushed in Hanks Balanced Salt Solution (Life Technologies) containing 10 mM HOPES (pH 7.2) (CellGro) and enzymatically digested with 2.5 mg/mL Collagenase A (Roche) and 1 unit/mL Dispase II (Roche) for 15 minutes at 37° C. under gentle agitation. The resulting cell suspensions were filtered (40 μm), washed using PBS (pH 7.2) containing 0.5% BSA (Fraction V) and 2 mM EDTA. […] After washing, cells were resuspended in PBS (pH 7.2) with 2 mM EDTA and 1 μg/mL 4-6,Diamidino-2-Phenylindole (DAPI) (live/dead exclusion) for analysis on an LSRII flow cytometer system (BD Biosciences) cytometer and analyzed using FlowJo software (TreeStar). […]
Mouse bone marrow derived late-stage endothelial progenitor outgrowth cells (EPOCs) were obtained from BioChain (7030031) and cultured in growth medium (BioChain Z7030035) as described previously (Xie et al. 2014). […] The cell numbers were quantified by counting a centered microscope field per each filter (5 wells for each condition). […] The width of the wound area was quantitatively evaluated using ImageJ (see website at rsb.info.uih.gov/ij/download.html). […]

[4] = IV twice weekly, 21 days after fracture
[5] = biomechanical testing, 21 days after fracture

B1: SLIT3: SLIT3 recombinant protein (R&D); secreted ligand of ROBO receptors (protein, UniProt O75094 34-1523, looked up)
Slit homolog 3 protein: CPTKCTCSAASVDCHGLGLRAVPRGIPRNAERLDLDRNNITRITKMDFAGLKNLRVLHLEDNQVSVIERGAFQDLKQLERLRLNKNKLQVLPELLFQSTPKLTRLDLSENQIQGIPRKAFRGITDVKNLQLDNNHISCIEDGAFRALRDLEILTLNNNNISRILVTSFNHMPKIRTLRLHSNHLYCDCHLAWLSDWLRQRRTVGQFTLCMAPVHLRGFNVADVQKKEYVCPAPHSEPPSCNANSISCPSPCTCSNNIVDCRGKGLMEIPANLPEGIVEIRLEQNSIKAIPAGAFTQYKKLKRIDISKNQISDIAPDAFQGLKSLTSLVLYGNKITEIVKGLFDGLVSLQLLLLNANKINCLRVNTFQDLQNLNLLSLYDNKLQTISKGLFAPLQSIQTLHLAQNPFVCDCHLKWLADYLQDNPIETSGARCSSPRRLANKRISQIKSKKFRCSGSEDYRSRFSSECFMDLVCPEKCRCEGTIVDCSNQKLVRIPSHLPEYVTDLRLNDNEVSVLEATGIFKKLPNLRKINLSNNKIKEVREGAFDGAASVQELMLTGNQLETVHGRVFRGLSGLKTLMLRSNLIGCVSNDTFAGLSSVRLLSLYDNRITTITPGAFTTLVSLSTINLLSNPFNCNCHLAWLGKWLRKRRIVSGNPRCQKPFFLKEIPIQDVAIQDFTCDGNEESSCQLSPRCPEQCTCMETVVRCSNKGLRALPRGMPKDVTELYLEGNHLTAVPRELSALRHLTLIDLSNNSISMLTNYTFSNMSHLSTLILSYNRLRCIPVHAFNGLRSLRVLTLHGNDISSVPEGSFNDLTSLSHLALGTNPLHCDCSLRWLSEWVKAGYKEPGIARCSSPEPMADRLLLTTPTHRFQCKGPVDINIVAKCNACLSSPCKNNGTCTQDPVELYRCACPYSYKGKDCTVPINTCIQNPCQHGGTCHLSDSHKDGFSCSCPLGFEGQRCEINPDDCEDNDCENNATCVDGINNYVCICPPNYTGELCDEVIDHCVPELNLCQHEAKCIPLDKGFSCECVPGYSGKLCETDNDDCVAHKCRHGAQCVDTINGYTCTCPQGFSGPFCEHPPPMVLLQTSPCDQYECQNGAQCIVVQQEPTCRCPPGFAGPRCEKLITVNFVGKDSYVELASAKVRPQANISLQVATDKDNGILLYKGDNDPLALELYQGHVRLVYDSLSSPPTTVYSVETVNDGQFHSVELVTLNQTLNLVVDKGTPKSLGKLQKQPAVGINSPLYLGGIPTSTGLSALRQGTDRPLGGFHGCIHEVRINNELQDFKALPPQSLGVSPGCKSCTVCKHGLCRSVEKDSVVCECRPGWTGPLCDQEARDPCLGHRCHHGKCVATGTSYMCKCAEGYGGDLCDNKNDSANACSAFKCHHGQCHISDQGEPYCLCQPGFSGEHCQQENPCLGQVVREVIRRQKGYASCATASKVPIMECRGGCGPQCCQPTRSKRRKYVFQCTDGSSFVEEVERHLECGCLACS
migration [1]: enhanced migration | bone fracture healing (μCT and histological analysis) ([2]; 5-week-old male mice, IV twice weekly, 21 days): enhancement of bone fracture healing; also recorded: enhances bone-fracture healing | bone volume in the callus area relative to controls [2, 4]: ~2 fold | vascularization of fracture area including CD31hiEMCNhi endothelium [2, 4]: increased | maximum load sustained by the fracture callus [2, 5]: significantly enhanced | stiffness of the fracture callus [2, 5]: significantly enhanced | acquisition of CD31hiEMCNhi surface immunophenotype in culture [3]: enhanced the acquisition; also recorded: induces production
